B1: CRGD SP1 (tumor recognition peptide CRGD inserted into the SP1 N-terminus) (other)
chain: MCRGDATRTPKLVKHTLLTRFKDEITREQIDNYINDYTNLLDLIPSMKSFNWGTDLGMESAELNRGYTHAFESTFESKSGLQEYLDSAALAAFAEGFLPTLSQRLVIDYFLY
notes: also called CRGD2
B2: RGDC SP1 (tumor recognition peptide RGDC inserted into the SP1 N-terminus) (other)
chain: MRGDCATRTPKLVKHTLLTRFKDEITREQIDNYINDYTNLLDLIPSMKSFNWGTDLGMESAELNRGYTHAFESTFESKSGLQEYLDSAALAAFAEGFLPTLSQRLVIDYFLY
notes: also called RGDC2
B3: SP1 variant HH2 (other)
chain: MHHATRTPKLVKHTLLTRFKDEITREQIDNYINDYTNLLDLIPSMKSFNWGTDLGMESAELNRGYTHAFESTFESKSGLQEYLDSAALAAFAEGFLPTLSQRLVIDYFLY
B4: SP1 variant F106A 6XH2 (other)
chain: MHHHHHHATRTPKLVKHTLLTRFKDEITREQIDNYINDYTNLLDLIPSMKSFNWGTDLGMESAELNRGYTHAFESTFESKSGLQEYLDSAALAAFAEGFLPTLSQRLVIDYALY
B5: SP1 variant S73A S75A 6XH2 (other)
chain: MHHHHHHATRTPKLVKHTLLTRFKDEITREQIDNYINDYTNLLDLIPSMKSFNWGTDLGMESAELNRGYTHAFESTFEAKAGLQEYLDSAALAAFAEGFLPTLSQRLVIDYFLY
B6: 6HSP1 (six histidine N-terminal tagged SP1) (other)
chain: MHHHHHHATRTPKLVKHTLLTRFKDEITREQIDNYINDYTNLLDLIPSMKSFNWGTDLGMESAELNRGYTHAFESTFESKSGLQEYLDSAALAAFAEGFLPTLSQRLVIDYFLY
notes: also called 6H2; SP1 6H
B7: SP1 variant D38A S75A 6XH2 (other)
chain: MHHHHHHATRTPKLVKHTLLTRFKDEITREQIDNYINDYTNLLALIPSMKSFNWGTDLGMESAELNRGYTHAFESTFESKAGLQEYLDSAALAAFAEGFLPTLSQRLVIDYFLY
B8: SP1 variant N31A T34A 6XH2 (other)
chain: MHHHHHHATRTPKLVKHTLLTRFKDEITREQIDNYIADYANLLDLIPSMKSFNWGTDLGMESAELNRGYTHAFESTFESKSGLQEYLDSAALAAFAEGFLPTLSQRLVIDYFLY
B9: SP1 (wild type, stress related SP1 protein from aspen) (other)
chain: MATRTPKLVKHTLLTRFKDEITREQIDNYINDYTNLLDLIPSMKSFNWGTDLGMESAELNRGYTHAFESTFESKSGLQEYLDSAALAAFAEGFLPTLSQRLVIDYFLY
notes: Full length SP1 without any additional tag, expressed in E. coli; it self-assembles into a dodecamer; also called WT; wild type SP1
B10: SP1 variant I30A (other)
chain: MATRTPKLVKHTLLTRFKDEITREQIDNYANDYTNLLDLIPSMKSFNWGTDLGMESAELNRGYTHAFESTFESKSGLQEYLDSAALAAFAEGFLPTLSQRLVIDYFLY
B11: SP1 variant Y108A (other)
chain: MATRTPKLVKHTLLTRFKDEITREQIDNYINDYTNLLDLIPSMKSFNWGTDLGMESAELNRGYTHAFESTFESKSGLQEYLDSAALAAFAEGFLPTLSQRLVIDYFLA
B12: SP1 variant D38A (other)
chain: MATRTPKLVKHTLLTRFKDEITREQIDNYINDYTNLLALIPSMKSFNWGTDLGMESAELNRGYTHAFESTFESKSGLQEYLDSAALAAFAEGFLPTLSQRLVIDYFLY
B13: SP1 variant D27A (other)
chain: MATRTPKLVKHTLLTRFKDEITREQIANYINDYTNLLDLIPSMKSFNWGTDLGMESAELNRGYTHAFESTFESKSGLQEYLDSAALAAFAEGFLPTLSQRLVIDYFLY
B14: SP1 variant E68A (other)
chain: MATRTPKLVKHTLLTRFKDEITREQIDNYINDYTNLLDLIPSMKSFNWGTDLGMESAELNRGYTHAFASTFESKSGLQEYLDSAALAAFAEGFLPTLSQRLVIDYFLY
B15: SP1 variant N31A (other)
chain: MATRTPKLVKHTLLTRFKDEITREQIDNYIADYTNLLDLIPSMKSFNWGTDLGMESAELNRGYTHAFESTFESKSGLQEYLDSAALAAFAEGFLPTLSQRLVIDYFLY
B16: SP1 variant T34A (other)
chain: MATRTPKLVKHTLLTRFKDEITREQIDNYINDYANLLDLIPSMKSFNWGTDLGMESAELNRGYTHAFESTFESKSGLQEYLDSAALAAFAEGFLPTLSQRLVIDYFLY
B17: SP1 variant R23A (other)
chain: MATRTPKLVKHTLLTRFKDEITAEQIDNYINDYTNLLDLIPSMKSFNWGTDLGMESAELNRGYTHAFESTFESKSGLQEYLDSAALAAFAEGFLPTLSQRLVIDYFLY
B18: SP1 variant Δ2-6 I40C (other)
chain: MKLVKHTLLTRFKDEITREQIDNYINDYTNLLDLCPSMKSFNWGTDLGMESAELNRGYTHAFESTFESKSGLQEYLDSAALAAFAEGFLPTLSQRLVIDYFLY
B19: ΔNSP1 (N-terminal deleted SP1, deletion of amino acids 2-6) (other)
chain: MKLVKHTLLTRFKDEITREQIDNYINDYTNLLDLIPSMKSFNWGTDLGMESAELNRGYTHAFESTFESKSGLQEYLDSAALAAFAEGFLPTLSQRLVIDYFLY
notes: Recombinant variant, E. coli; also called Δ2-6; SP1 ΔN
B20: SP1 variant Δ2-7 Cys2 (other)
chain: MCLVKHTLLTRFKDEITREQIDNYINDYTNLLDLIPSMKSFNWGTDLGMESAELNRGYTHAFESTFESKSGLQEYLDSAALAAFAEGFLPTLSQRLVIDYFLY
B21: SP1 variant Δ2-6 His2 (other)
chain: MHKLVKHTLLTRFKDEITREQIDNYINDYTNLLDLIPSMKSFNWGTDLGMESAELNRGYTHAFESTFESKSGLQEYLDSAALAAFAEGFLPTLSQRLVIDYFLY
B22: SP1 variant Δ2-6 E72C (other)
chain: MKLVKHTLLTRFKDEITREQIDNYINDYTNLLDLIPSMKSFNWGTDLGMESAELNRGYTHAFESTFCSKSGLQEYLDSAALAAFAEGFLPTLSQRLVIDYFLY
B23: SP1 variant Cys2loop1RGd (Cys2 K18R Gly19) (other)
chain: MCATRTPKLVKHTLLTRFRGDEITREQIDNYINDYTNLLDLIPSMKSFNWGTDLGMESAELNRGYTHAFESTFESKSGLQEYLDSAALAAFAEGFLPTLSQRLVIDYFLY
B24: SP1 variant Δ2-6 L81C (other)
chain: MKLVKHTLLTRFKDEITREQIDNYINDYTNLLDLIPSMKSFNWGTDLGMESAELNRGYTHAFESTFESKSGLQEYCDSAALAAFAEGFLPTLSQRLVIDYFLY

Target: the molecule itself
Test: homo-oligomer complex formation, SDS-PAGE of unboiled samples

Binding result, binds:
B1, B2, B3, B4, B5, B6, B7, B8, B9, B10, B11, B12, B13, B14, B15, B16, B17, B18, B19, B20, B21

Target: B19
Test: co-electro-elution of monomers, Ni-NTA pull-down, Proteinase K, SDS-PAGE

Binding result, binds:
B6

Target: the molecule itself
Test: homo-oligomer complex formation after inclusion body refolding (footnote 10), SDS-PAGE, proteinase digestion of monomers

Binding result, binds:
B22

Target: the molecule itself
Test: homo-oligomer complex formation after inclusion body refolding, SDS-PAGE, proteinase digestion of monomers

Binding result, binds:
B23, B24

Source: US20090062197A1 (FULCRUM SP, published 2009)
